Experiments:
[1] = biological target: T1, similar peptide SP-05-0003, source protein not stated peptide on HLA-A*02:01 (human); assay: killing
T1 peptide: KVTEMLVNV

[2] = biological target: T2, similar peptide SP-05-0008, source protein not stated peptide on HLA-A*02:01 (human); assay: killing
T2 peptide: KILDELEKV

[3] = biological target: T3, similar peptide SP-05-0004, source protein not stated peptide on HLA-A*02:01 (human); assay: killing
T3 peptide: KIWEWLVGV

[4] = biological target: T4, similar peptide SP-05-0007, source protein not stated peptide on HLA-A*02:01 (human); assay: killing
T4 peptide: KIFPALCTV

[5] = biological target: T5, CT45-IP alanine variant, position 4 peptide on HLA-A*02:01 (human); assay: killing
T5 peptide: KIFAMLEGV

[6] = biological target: T6, CT45-IP alanine variant, position 3 peptide on HLA-A*02:01 (human); assay: killing
T6 peptide: KIAEMLEGV

[7] = biological target: T7, similar peptide SP-05-0001, source protein not stated peptide on HLA-A*02:01 (human); assay: killing
T7 peptide: HIMEHLEGV

[8] = biological target: T8, CT45-IP alanine variant, position 1 peptide on HLA-A*02:01 (human); assay: killing
T8 peptide: AIFEMLEGV

[9] = biological target: T9, CT45-IP alanine variant, position 8 peptide on HLA-A*02:01 (human); assay: killing
T9 peptide: KIFEMLEAV

[10] = biological target: T10, similar peptide SP-05-0002, source protein not stated peptide on HLA-A*02:01 (human); assay: killing
T10 peptide: KIFSGLLKV

[11] = biological target: T11, CT45-IP alanine variant, position 6 peptide on HLA-A*02:01 (human); assay: killing
T11 peptide: KIFEMAEGV

[12] = biological target: T12, similar peptide SP-05-0005, source protein not stated peptide on HLA-A*02:01 (human); assay: killing
T12 peptide: KIEEFLEAV

[13] = biological target: T13, similar peptide SP-05-0009, source protein not stated peptide on HLA-A*02:01 (human); assay: killing
T13 peptide: KIIDLLPKV

[14] = biological target: T14, similar peptide SP-05-0006, source protein not stated peptide on HLA-A*02:01 (human); assay: killing
T14 peptide: KIAELLENV

[15] = biological target: T15, similar peptide SP-05-0010, source protein not stated peptide on HLA-A*02:01 (human); assay: killing
T15 peptide: RIFETVNSV

[16] = biological target: CT45-IP antigenic peptide (…) in complex with HLA-A*02 presented on cells (peptide-loaded T2 cells; NCIH1703 and A375 tumor cells) (human); assay: cell-based or functional assay
[17] = biological target: T16, CT45 (CT45A1, A2, A3, A5 to A10); CT45-IP peptide on HLA-A*02:01 (human); assay: CT45-IP-HLA-A*02 dextramer on T cells with TCR mRNA; TCR found by tetramer sorting; full-length, on cells
T16 peptide: KIFEMLEGV

[18] = biological target: T16, CT45 (CT45A1, A2, A3, A5 to A10); …; assay: luciferase release, 24 h, 1:1; CD8+ T cells with TCR mRNA, T2 cells with titrated peptide; full-length, on cells
[19] = biological target: CT45-IP-HLA-A*02 dextramer (human); assay: flow cytometry, dextramer staining of TCR-mRNA electroporated T cells, gated on CD3+

B1: TCR-8 (TCR, V domains shown)
Valpha: QKVTQAQTEISVVEKEDVTLDCVYETRDTTYYLFWYKQPPSGELVFLIRRNSFDEQNEISGRYSWNFQKSTSSFNFTITASQVVDSAVYFCALSGRGSGTYKYIFGTGTRLKVLA
Vbeta: GVIQSPRHLIKEKRETATLKCYPIPRHDTVYWYQQGPGQDPQFLISFYEKMQSDKGSIPDRFSAQQFSDYHSELNMSSLELGDSALYFCASSAGTSYNEQFFGPGTRLTVL
B1: no recognition [1]; no recognition [2]; no recognition [3]. B1: no recognition [4]; recognises [5]; recognises [6]. B1: no recognition [7]; recognises [8]; recognises [9]. B1: no recognition [10]; recognises [11]; no recognition [12]. B1: no recognition [13]; no recognition [14]; no recognition [15]. The EC50, half maximal killing capacity (functional avidity; CT45-IP peptide titration on T2 cells, luciferase release) [16] was 6.52 nM, the dextramer-positive events [17] was 60.7% and the EC50 of peptide [18] was 6.52 nM. It also gave a surface expression, % positive events by CT45-IP-HLA-A2*02 dextramer staining [19] of 60.7%.
